Reference: patent US20230407373A1 (priority 2020, published 2023)

B1: HNRNPH3 (protein, UniProt P31942 1-346, looked up)
Heterogeneous nuclear …: MDWVMKHNGPNDASDGTVRLRGLPFGCSKEEIVQFFQGLEIVPNGITLTMDYQGRSTGEAFVQFASKEIAENALGKHKERIGHRYIEIFRSSRSEIKGFYDPPRRLLGQRPGPYDRPIGGRGGYYGAGRGSMYDRMRRGGDGYDGGYGGFDDYGGYNNYGYGNDGFDDRMRDGRGMGGHGYGGAGDASSGFHGGHFVHMRGLPFRATENDIANFFSPLNPIRVHIDIGADGRATGEADVEFVTHEDAVAAMSKDKNNMQHRYIELFLNSTPGGGSGMGGSGMGGYGRDGMDNQGGYGSVGRMGMGNNYSGGYGTPDGLGGYGRGGGGSGGYYGQGGMSGGGWRGMY
B2: SRSF3 (protein, UniProt P84103 1-164, looked up)
Serine/arginine-rich splicing …: MHRDSCPLDCKVYVGNLGNNGNKTELERAFGYYGPLRSVWVARNPPGFAFVEFEDPRDAADAVRELDGRTLCGCRVRVELSNGEKRSRNRGPPPSWGRRPRDDYRRRSPPPRRRSPRRRSFSRSRSRSLSRDRRRERSLSRERNHKPSRSFSRSRSRSRSNERK
B3: FUBP1: host protein, UniProt Q96AE4 (protein, UniProt Q96AE4 2-644, looked up)
Far upstream element-binding …: ADYSTVPPPSSGSAGGGGGGGGGGGVNDAFKDALQRARQIAAKIGGDAGTSLNSNDYGYGGQKRPLEDGDQPDAKKVAPQNDSFGTQLPPMHQQQSRSVMTEEYKVPDGMVGFIIGRGGEQISRIQQESGCKIQIAPDSGGLPERSCMLTGTPESVQSAKRLLDQIVEKGRPAPGFHHGDGPGNAVQEIMIPASKAGLVIGKGGETIKQLQERAGVKMVMIQDGPQNTGADKPLRITGDPYKVQQAKEMVLELIRDQGGFREVRNEYGSRIGGNEGIDVPIPRFAVGIVIGRNGEMIKKIQNDAGVRIQFKPDDGTTPERIAQITGPPDRCQHAAEIITDLLRSVQAGNPGGPGPGGRGRGRGQGNWNMGPPGGLQEFNFIVPTGKTGLIIGKGGETIKSISQQSGARIELQRNPPPNADPNMKLFTIRGTPQQIDYARQLIEEKIGGPVNPLGPPVPHGPHGVPGPHGPPGPPGPGTPMGPYNPAPYNPGPPGPAPHGPPAPYAPQGWGNAYPHWQQQAPPDPAKAGTDPNSAAWAAYYAHYYQQQAQPPPAAPAGAPTTTQTNGQGDQQNPAPAGQVDYTKAWEEYYKKMGQAVPAPTGAPPGGQPDYSAAWAEYYRQQAAYYAQTSPQGMPQHPPAPQGQ
B4: SSBP1 (protein, UniProt Q04837 17-148, looked up)
Single-stranded DNA-binding …: ESETTTSLVLERSLNRVHLLGRVGQDPVLRQVEGKNPVTIFSLATNEMWRSGDSEVYQLGDVSQKTTWHRISVFRPGLRDVAYQYVKKGSRIYLEGKIDYGEYMDKNNVRRQATTIIADNIIFLSDQTKEKE
B5: SAFB: host protein, UniProt Q15424 (protein, UniProt Q15424 2-915, looked up)
Scaffold attachment factor B1: AETLSGLGDSGAAGAAALSSASSETGTRRLSDLRVIDLRAELRKRNVDSSGNKSVLMERLKKAIEDEGGNPDEIEITSEGNKKTSKRSSKGRKPEEEGVEDNGLEENSGDGQEDVETSLENLQDIDIMDISVLDEAEIDNGSVADCVEDDDADNLQESLSDSRELVEGEMKELPEQLQEHAIEDKETINNLDTSSSDFTILQEIEEPSLEPENEKILDILGETCKSEPVKEESSELEQPFAQDTSSVGPDRKLAEEEDLFDSAHPEEGDLDLASESTAHAQSSKADSLLAVVKREPAEQPGDGERTDCEPVGLEPAVEQSSAASELAEASSEELAEAPTEAPSPEARDSKEDGRKFDFDACNEVPPAPKESSTSEGADQKMSSPEDDSDTKRLSKEEKGRSSCGRNFWVSGLSSTTRATDLKNLFSKYGKVVGAKVVTNARSPGARCYGFVTMSTAEEATKCINHLHKTELHGKMISVEKAKNEPVGKKTSDKRDSDGKKEKSSNSDRSTNLKRDDKCDRKDDAKKGDDGSGEKSKDQDDQKPGPSERSRATKSGSRGTERTVVMDKSKGVPVISVKTSGSKERASKSQDRKSASREKRSVVSFDKVKEPRKSRDSESHSRVRERSEREQRMQAQWEREERERLEIARERLAFQRQRLERERMERERLERERMHVEHERRREQERIHREREELRRQQELRYEQERRPAVRRPYDLDRRDDAYWPEAKRAALDERYHSDFNRQDRFHDFDHRDRGRYPDHSVDRREGSRSMMGEREGQHYPERHGGPERHGRDSRDGWGGYGSDKRMSEGRGLPPPPRRDWGDHGRREDDRSWQGTADGGMMDRDHKRWQGGERSMSGHSGPGHMMNRGGMSGRGSFAPGGASRGHPIPHGGMQGGFGGQSRGSRPSDARFTRRY
B6: PURA (protein, UniProt Q00577 2-322, looked up)
Transcriptional activator …: ADRDSGSEQGGAALGSGGSLGHPGSGSGSGGGGGGGGGGGGSGGGGGGAPGGLQHETQELASKRVDIQNKRFYLDVKQNAKGRFLKIAEVGAGGNKSRLTLSMSVAVEFRDYLGDFIEHYAQLGPSQPPDLAQAQDEPRRALKSEFLVRENRKYYMDLKENQRGRFLRIRQTVNRGPGLGSTQGQTIALPAQGLIEFRDALAKLIDDYGVEEEPAELPEGTSLTVDNKRFFFDVGSNKYGVFMRVSEVKPTYRNSITVPYKVWAKFGHTFCKYSEEMKKIQEKQREKRAACEQLHQQQQQQQEETAAATLLLQGEEEGEED
B7: ILF3: host protein, UniProt Q12906 (protein, UniProt Q12906 1-894, looked up)
Interleukin enhancer-binding …: MRPMRIFVNDDRHVMAKHSSVYPTQEELEAVQNMVSHTERALKAVSDWIDEQEKGSSEQAESDNMDVPPEDDSKEGAGEQKTEHMTRTLRGVMRVGLVAKGLLLKGDLDLELVLLCKEKPTTALLDKVADNLAIQLAAVTEDKYEILQSVDDAAIVIKNTKEPPLSLTIHLTSPVVREEMEKVLAGETLSVNDPPDVLDRQKCLAALASLRHAKWFQARANGLKSCVIVIRVLRDLCTRVPTWGPLRGWPLELLCEKSIGTANRPMGAGEALRRVLECLASGIVMPDGSGIYDPCEKEATDAIGHLDRQQREDITQSAQHALRLAAFGQLHKVLGMDPLPSKMPKKPKNENPVDYTVQIPPSTTYAITPMKRPMEEDGEEKSPSKKKKKIQKKEEKAEPPQAMNALMRLNQLKPGLQYKLVSQTGPVHAPIFTMSVEVDGNSFEASGPSKKTAKLHVAVKVLQDMGLPTGAEGRDSSKGEDSAEETEAKPAVVAPAPVVEAVSTPSAAFPSDATAEQGPILTKHGKNPVMELNEKRRGLKYELISETGGSHDKRFVMEVEVDGQKFQGAGSNKKVAKAYAALAALEKLFPDTPLALDANKKKRAPVPVRGGPKFAAKPHNPGFGMGGPMHNEVPPPPNLRGRGRGGSIRGRGRGRGFGGANHGGYMNAGAGYGSYGYGGNSATAGYSQFYSNGGHSGNASGGGGGGGGGSSGYGSYYQGDNYNSPVPPKHAGKKQPHGGQQKPSYGSGYQSHQGQQQSYNQSPYSNYGPPQGKQKGYNHGQGSYSYSNSYNSPGGGGGSDYNYESKFNYSGSGGRSGGNSYGSGGASYNPGSHGGYGGGSGGGSSYQGKQGGYSQSNYNSPGSGQNYSGPPSSYQSSQGGYGRNADHSMNYQYR

What follows are molecules tested on SARS-CoV-2 gRNA. Conditions: […]; LC-MS/MS; Probe I sample (first 199 lines of Table 2).
Assay type: binding

| Molecule | target (unweighted spectral count of the protein in the RNP capture) |
| --- | --- |
| B1 | 23 |
| B2 | 16 |
| B3 | 32 |
| B4 | 14 |
| B5 | 20 |
| B6 | 15 |
| B7 | 15 |

What follows are molecules tested on SARS-CoV-2 gRNA and sgRNAs. Conditions: Probe II capture; […]; LC-MS/MS LFQ.
Assay type: binding

| Molecule | target (unweighted spectral count in RNP capture) |
| --- | --- |
| B1 | 17 |
| B2 | 20 |
| B3 | 21 |
| B4 | 7 |
| B5 | 11 |
| B6 | 19 |
| B7 | 15 |

Same assay, conditions: no-probe control pull-down, used as background for Probe II

| Molecule | background (unweighted spectral count in control) |
| --- | --- |
| B1 | 1 |
| B2 | 1 |
| B3 | 1 |
| B4 | 1 |
| B5 | 1 |
| B6 | 1 |
| B7 | 1 |

The molecules below were run on gRNA of HCoV-OC43. Conditions: not given.
Assay type: binding

| Molecule | background (spectral count, no-probe control) | target (spectral count, OC43 Probe I RNP capture) |
| --- | --- | --- |
| B2 | 3 | 14 |

Same assay, conditions: type g_36_m; HCoV-OC43-infected HCT-8 cells, 36 hpi, Probe I

| Molecule | target (spectral count) |
| --- | --- |
| B3 | 15 |
| B7 | 39 |

Same assay, conditions: type g_36_m; uninfected-probe control, 36 hpi, Probe I

| Molecule | background (spectral count) |
| --- | --- |
| B3 | 2 |
| B7 | 3 |

Same assay, conditions: type n_48_v: 48 hours post-infection, infected cells, OC43 Probe I; unweighted spectral count

| Molecule | target (spectral count, OC43 Probe I RNP capture) |
| --- | --- |
| B1 | 16 |
| B4 | 16 |
| B5 | 11 |
| B6 | 7 |
| B7 | 38 |

Same assay, conditions: type n_48_v: 48 hours post-infection, no-probe control on infected cells

| Molecule | background (spectral count, no-probe control) |
| --- | --- |
| B1 | 2 |
| B3 | 2 |
| B4 | 3 |
| B5 | 1 |
| B6 | 1 |
| B7 | 2 |

What follows are molecules tested on HCoV-OC43 gRNA and sgRNA. Conditions: not given.
Assay type: binding

| Molecule | background (unweighted spectral count, no-probe control) | target (unweighted spectral count) | target (unweighted spectral count, OC43 Probe II capture) | target (unweighted spectral count, OC43 Probe II) |
| --- | --- | --- | --- | --- |
| B2 | 3 | 6 | 18 | 16 |

Same assay, conditions: 36 hpi; type n_36_v; tested against no-probe control; FDR<10%

| Molecule | target (unweighted spectral count, OC43 Probe II capture) |
| --- | --- |
| B1 | 18 |
| B3 | 17 |
| B4 | 12 |
| B5 | 7 |
| B6 | 5 |
| B7 | 31 |

Same assay, conditions: OC43 Probe II, 12 hpi (type n_12_v), infected cells; tested against no-probe control

| Molecule | target (unweighted spectral count) |
| --- | --- |
| B1 | 6 |
| B3 | 6 |
| B4 | 44 |
| B7 | 7 |

Same assay, conditions: OC43 Probe II, 24 hpi (type n_24_v), infected cells; tested against no-probe control

| Molecule | target (unweighted spectral count) |
| --- | --- |
| B1 | 15 |
| B3 | 12 |
| B4 | 25 |
| B7 | 14 |

Same assay, conditions: type n_48_v; 48 hpi; OC43 Probe II capture on infected cells

| Molecule | target (unweighted spectral count, OC43 Probe II) |
| --- | --- |
| B1 | 21 |
| B3 | 21 |
| B4 | 14 |
| B5 | 9 |
| B6 | 12 |
| B7 | 36 |

Same assay, conditions: type n_48_v; 48 hpi; no-probe control on infected cells

| Molecule | background (unweighted spectral count, no-probe control) |
| --- | --- |
| B1 | 2 |
| B3 | 2 |
| B4 | 3 |
| B5 | 1 |
| B6 | 1 |
| B7 | 2 |

Same assay, conditions: type s_36_m; HCoV-OC43-infected HCT-8 cells, 36 hpi, Probe II

| Molecule | target (spectral count) |
| --- | --- |
| B3 | 17 |
| B5 | 7 |
| B7 | 31 |

Same assay, conditions: type s_36_m; uninfected-probe control, 36 hpi, Probe II

| Molecule | background (spectral count) |
| --- | --- |
| B3 | 1 |
| B5 | 1 |
| B7 | 3 |
